Consider two molecules from article PMC6265327, “Structure of DNA-CMG-Pol epsilon elucidates the roles of the non-catalytic polymerase modules in the eukaryotic replisome” (Nature Communications, 2018).

B2: Dpb2, subunit of the CBP-tagged Pol epsilon complexes (deltacat and exo-) (natural protein, yeast (strains based on W303), UniProt P24482 1-689, looked up)
chain: MFGSGNVLPVKIQPPLLRPLAYRVLSRKYGLSIKSDGLSALAEFVGTNIGANWRQGPATIKFLEQFAAVWKQQERGLFIDQSGVKEVIQEMKEREKVEWSHEHPIQHEENILGRTDDDENNSDDEMPIAADSSLQNVSLSSPMRQPTERDEYKQPFKPESSKALDWRDYFKVINASQQQRFSYNPHKMQFIFVPNKKQNGLGGIAGFLPDIEDKVQMFLTRYYLTNDRVMRNENFQNSDMFNPLSSMVSLQNELSNTNRQQQSSSMSITPIKNLLGRDAQNFLLLGLLNKNFKGNWSLEDPSGSVEIDISQTIPTQGHYYVPGCMVLVEGIYYSVGNKFHVTSMTLPPGERREITLETIGNLDLLGIHGISNNNFIARLDKDLKIRLHLLEKELTDHKFVILGANLFLDDLKIMTALSKILQKLNDDPPTLLIWQGSFTSVPVFASMSSRNISSSTQFKNNFDALATLLSRFDNLTENTTMIFIPGPNDLWGSMVSLGASGTLPQDPIPSAFTKKINKVCKNVVWSSNPTRIAYLSQEIVIFRDDLSGRFKRHRLEFPFNESEDVYTENDNMMSKDTDIVPIDELVKEPDQLPQKVQETRKLVKTILDQGHLSPFLDSLRPISWDLDHTLTLCPIPSTMVLCDTTSAQFDLTYNGCKVINPGSFIHNRRARYMEYVPSSKKTIQEEIYI
notes: Dpb2, second largest subunit of yeast Pol epsilon; The complexes carry a CBP tag; The N-terminal domain is not seen in the deltacat map; also called NTD-Dpb2; CTD-Dpb2; source: yeast overexpression strain, galactose-induced; purified as part of Pol epsilon deltacat or exo- (calmodulin beads, Mono Q, gel filtration)

Common to all, as to assay: cryo-EM structure; 250 nM CMG bound to a desthiobiotin-labelled pre-formed DNA fork on streptavidin beads with 2 mM ATPgammaS, then 80 nM Pol epsilon exo-, 30 °C, eluted with biotin; no crosslinker; 4.9 Å
What all share (conditions): both partners purified

Assay [1] has as its target B2.
Assay [2] has as its target T1, Mcm3, subunit of the purified CMG (yeast (strains based on W303), UniProt P24279 1-971).
T1 construct: Mcm3, subunit of yeast CMG; The Mcm3 chain of m4; source: yeast overexpression strain yJCZ3, purified as part of CMG

The target of assay [3] is T2, Mcm5, subunit of the purified CMG (yeast (strains based on W303), UniProt P29496 1-775).
T2 construct: Mcm5, subunit of yeast CMG; The Mcm5 chain of m4; source: yeast overexpression strain yJCZ3, purified as part of CMG
T2 sequence: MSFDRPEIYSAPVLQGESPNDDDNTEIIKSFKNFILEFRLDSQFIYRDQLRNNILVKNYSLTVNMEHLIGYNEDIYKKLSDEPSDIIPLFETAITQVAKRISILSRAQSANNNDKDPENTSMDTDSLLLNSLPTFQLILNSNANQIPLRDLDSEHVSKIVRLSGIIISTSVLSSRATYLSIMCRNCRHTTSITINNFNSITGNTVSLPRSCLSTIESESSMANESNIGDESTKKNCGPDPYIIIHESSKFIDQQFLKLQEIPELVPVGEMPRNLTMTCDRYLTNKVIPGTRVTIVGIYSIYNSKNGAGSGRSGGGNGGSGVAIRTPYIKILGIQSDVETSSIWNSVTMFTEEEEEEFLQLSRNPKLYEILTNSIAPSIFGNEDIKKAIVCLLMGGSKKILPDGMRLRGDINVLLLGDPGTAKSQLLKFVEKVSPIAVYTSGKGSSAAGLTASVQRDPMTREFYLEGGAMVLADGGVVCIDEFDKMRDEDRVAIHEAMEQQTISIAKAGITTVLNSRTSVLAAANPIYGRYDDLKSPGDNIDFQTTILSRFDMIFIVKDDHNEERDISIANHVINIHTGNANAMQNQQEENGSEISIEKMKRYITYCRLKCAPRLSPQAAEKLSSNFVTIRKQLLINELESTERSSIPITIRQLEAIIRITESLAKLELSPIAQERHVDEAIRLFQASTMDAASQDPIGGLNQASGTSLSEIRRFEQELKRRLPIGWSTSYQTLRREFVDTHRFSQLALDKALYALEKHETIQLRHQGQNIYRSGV

T1 sequence (P24279 whole entry): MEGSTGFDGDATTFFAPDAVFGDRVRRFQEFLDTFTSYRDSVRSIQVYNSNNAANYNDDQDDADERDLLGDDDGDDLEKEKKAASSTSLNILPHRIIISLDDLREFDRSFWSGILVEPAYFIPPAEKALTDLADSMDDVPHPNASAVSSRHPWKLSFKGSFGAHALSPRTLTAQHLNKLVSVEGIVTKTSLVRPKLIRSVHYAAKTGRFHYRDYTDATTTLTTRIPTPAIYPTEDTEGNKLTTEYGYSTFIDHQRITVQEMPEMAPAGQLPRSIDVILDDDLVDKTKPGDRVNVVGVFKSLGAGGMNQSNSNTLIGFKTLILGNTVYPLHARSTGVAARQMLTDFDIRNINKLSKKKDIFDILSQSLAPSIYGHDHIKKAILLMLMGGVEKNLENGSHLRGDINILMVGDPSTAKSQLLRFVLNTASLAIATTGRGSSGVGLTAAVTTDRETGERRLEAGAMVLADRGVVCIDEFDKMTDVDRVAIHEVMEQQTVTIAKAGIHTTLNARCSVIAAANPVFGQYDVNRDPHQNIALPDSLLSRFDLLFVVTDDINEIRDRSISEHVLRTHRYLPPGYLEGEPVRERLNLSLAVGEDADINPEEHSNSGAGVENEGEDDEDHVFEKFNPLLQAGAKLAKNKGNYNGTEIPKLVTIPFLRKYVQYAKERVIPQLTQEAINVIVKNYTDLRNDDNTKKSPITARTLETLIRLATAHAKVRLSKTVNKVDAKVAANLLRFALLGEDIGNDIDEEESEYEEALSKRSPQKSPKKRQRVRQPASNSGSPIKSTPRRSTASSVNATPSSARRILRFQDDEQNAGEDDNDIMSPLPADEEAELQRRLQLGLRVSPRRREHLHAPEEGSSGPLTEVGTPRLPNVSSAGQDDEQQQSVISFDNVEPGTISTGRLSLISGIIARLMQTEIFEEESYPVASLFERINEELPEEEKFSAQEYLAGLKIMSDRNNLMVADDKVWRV

B1: Psf1, GINS subunit of the purified CMG (natural protein, yeast (strains based on W303))
chain: MYGDLGNKLVLEAKRTKQLYARSNQDVNLPMYHEDIIRNILKEVSNLRKNTEYLKEQQQLGMLDDKVAKCQYFVTLLCMERNKRCLLAYQRLRTDILDSMAWNNNGLDLMSSITFSQQDTNNLSHQEQEYLKEYCDLITDLKSGDLVDIDLSGSLVPPSDVFIDVRVLKDAGEIQTEYGVFNLIKDSQFFVRQSDVERLIQQGYLQKI
notes: Psf1, GINS subunit of yeast CMG; The Psf1 chain of m4; source: yeast overexpression strain yJCZ3, purified as part of CMG
On to B1, for which the binding result in assay [1] is “binds”.

With B2, the binding result in assay [2] and in assay [3] was “binds” in each case.
